According to patent US20240132615A1 (ICHNOS SCIENCES, published 2024):
Where a chain is given by its changes, count along the chain named.

T1: human BCMA on cells (NCI-H929, NCI-H929 CD38 KO, MOLP-8) (human, UniProt Q02223 1-184)
T1 construct: whole, on cells; endogenous BCMA of myeloma cell lines
T1 sequence (looked up): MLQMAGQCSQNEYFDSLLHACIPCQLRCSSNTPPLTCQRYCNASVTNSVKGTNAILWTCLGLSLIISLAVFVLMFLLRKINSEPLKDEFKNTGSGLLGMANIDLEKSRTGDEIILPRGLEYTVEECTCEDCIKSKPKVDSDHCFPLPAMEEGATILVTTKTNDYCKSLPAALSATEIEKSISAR

T2: recombinant human BCMA Fc fusion protein (Acrobiosystems BC7-H5254 / BCA-H5254) (human, UniProt Q02223 1-54)
T2 construct: also called recombinant BCMA-Fc protein; not shown: Fc of the bought fusion protein, not described
T2 sequence (looked up): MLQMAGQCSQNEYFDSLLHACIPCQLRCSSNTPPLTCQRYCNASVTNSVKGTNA

B1: Anti-CD38-UCP03-H3 Fab (Fab, V domains shown)
VH: QVQLVQSGAEVKKPGSSVKVSCKASGGVFSQFPISWVRQAPGQGLEWMGGIIAGYGATEYAQKFQGRVTITADESTSTAYMELSSLRSEDTAVYYCARVYGGIDWGQGTLVTVSS
VL: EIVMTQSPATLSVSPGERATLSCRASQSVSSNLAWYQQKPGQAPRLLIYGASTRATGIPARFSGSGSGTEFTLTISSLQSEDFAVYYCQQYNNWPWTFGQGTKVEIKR
notes: Fab
B2: Anti-CD38-UCP03-A6 Fab (Fab, V domains shown)
VH: QVQLVQSGAEVKKPGSSVKVSCKASGGDFSLYAISWVRQAPGQGLEWMGGIIPLLGEPVYAQKFQGRVTITADESTSTAYMELSSLRSEDTAVYYCARGHRVYSSSPFDYWGQGTLVTVSS
VL: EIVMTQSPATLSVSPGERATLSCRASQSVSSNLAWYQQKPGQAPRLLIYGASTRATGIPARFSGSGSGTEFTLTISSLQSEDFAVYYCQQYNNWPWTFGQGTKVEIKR
notes: Fab
B3: Anti-BCMA-D3-MP04-A2 FAB (Fab, V domains shown)
VH: EVQLVESGGGLIQPGGSLRLSCAASGFIFSHYEMNWVRQAPGKGLEWVSAIGQQGGNTVYADSVKGRFTISRDNSKNTLYLQMNSLRAEDTAVYYCARVPYSYSGYSGADIWGQGTLVTVSS
VL: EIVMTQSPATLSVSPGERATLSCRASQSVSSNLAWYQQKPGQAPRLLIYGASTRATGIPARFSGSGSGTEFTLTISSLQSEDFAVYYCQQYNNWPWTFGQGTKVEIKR
notes: Fab
B4: Anti-BCMA-D3-MP04-D4 FAB (Fab, V domains shown)
VH: B3 VH with Q54V
VL: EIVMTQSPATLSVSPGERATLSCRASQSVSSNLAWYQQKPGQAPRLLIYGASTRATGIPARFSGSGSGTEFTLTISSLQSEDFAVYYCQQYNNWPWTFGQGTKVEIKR
notes: Fab
B5: Anti-BCMA-D3-MP03-G7 FAB (Fab, V domains shown)
VH: B3 VH with A50I, Q54R, G56H, N57T, V59E
VL: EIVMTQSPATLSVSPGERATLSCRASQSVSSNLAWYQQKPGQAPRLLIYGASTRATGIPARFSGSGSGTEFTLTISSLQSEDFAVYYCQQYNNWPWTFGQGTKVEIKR
notes: Fab
B6: Anti-BCMA-D3-MP04-C8a FAB (Fab, V domains shown)
VH: B3 VH with Q54M, G56F, N57G, V59L, S63N
VL: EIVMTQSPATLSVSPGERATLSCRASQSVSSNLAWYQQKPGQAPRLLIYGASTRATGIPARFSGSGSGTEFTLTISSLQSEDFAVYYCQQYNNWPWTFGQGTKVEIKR
notes: Fab
B7: Anti-BCMA-D3-MP04-E11 FAB (Fab, V domains shown)
VH: B3 VH with Q54L
VL: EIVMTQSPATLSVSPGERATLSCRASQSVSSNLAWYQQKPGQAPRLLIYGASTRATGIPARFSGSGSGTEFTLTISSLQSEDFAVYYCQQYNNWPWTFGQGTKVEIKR
notes: Fab; also called anti-BCMA-D3-E11; D3-E11
B8: Anti-BCMA-D3-MP04-C8b FAB (Fab, V domains shown)
VH: B3 VH with Q54I, G56F, N57G, V59L, S63N
VL: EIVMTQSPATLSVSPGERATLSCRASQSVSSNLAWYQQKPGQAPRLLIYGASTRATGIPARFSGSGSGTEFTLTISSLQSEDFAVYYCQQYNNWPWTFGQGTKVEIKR
notes: Fab
B9: Anti-BCMA-D3-MP04-C2 FAB (Fab, V domains shown)
VH: B3 VH with Q54F
VL: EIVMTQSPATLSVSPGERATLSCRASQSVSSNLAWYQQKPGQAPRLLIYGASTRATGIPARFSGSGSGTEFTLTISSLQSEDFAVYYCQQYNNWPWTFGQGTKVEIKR
notes: Fab
B10: Anti-CD3-C1-UCP01-H9 IgG1LALA (antibody, V domains shown)
VH: QVQLVQSGAEVKKPGSSVKVSCKASGGKFSRYAISWVRQAPGQGLEWMGGISPHVGYAEYAQKFQGRVTITADESTSTAYMELSSLRSEDTAVYYCARYGYSLYMDIWGQGTLVTVSS
VL: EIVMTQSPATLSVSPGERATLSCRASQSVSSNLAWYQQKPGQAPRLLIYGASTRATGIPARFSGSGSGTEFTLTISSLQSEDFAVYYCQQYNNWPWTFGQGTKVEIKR
notes: IgG1 LALA
B11: Anti-CD3-C1-UCP01-D4 IgG1LALA (antibody, V domains shown)
VH: B10 VH with S52N, H54I, V55R, Y57R, A58P, E59S
VL: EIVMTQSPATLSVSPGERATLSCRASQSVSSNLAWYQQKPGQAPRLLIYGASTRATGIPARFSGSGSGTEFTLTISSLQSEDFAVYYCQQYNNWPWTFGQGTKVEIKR
notes: IgG1 LALA
B12: Anti-CD3-C1-UCP01-E7 IgG1LALA (antibody, V domains shown)
VH: B10 VH with S52N, V55L, Y57E
VL: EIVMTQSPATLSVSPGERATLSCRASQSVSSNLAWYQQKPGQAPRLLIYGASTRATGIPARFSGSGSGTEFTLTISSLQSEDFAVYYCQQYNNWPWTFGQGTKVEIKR
notes: IgG1 LALA
B13: Anti-CD3-C1-UCP01-F1 IgG1LALA (antibody, V domains shown)
VH: B10 VH with S52N, H54R, V55L, Y57Q
VL: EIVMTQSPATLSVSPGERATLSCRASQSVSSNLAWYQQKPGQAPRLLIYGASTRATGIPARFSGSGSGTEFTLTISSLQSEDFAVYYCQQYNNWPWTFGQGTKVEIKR
notes: IgG1 LALA
B14: Anti-CD3-C1-UCP01-D6 IgG1LALA (antibody, V domains shown)
VH: B10 VH with S52T, P53A, H54L, V55G, A58P, E59N
VL: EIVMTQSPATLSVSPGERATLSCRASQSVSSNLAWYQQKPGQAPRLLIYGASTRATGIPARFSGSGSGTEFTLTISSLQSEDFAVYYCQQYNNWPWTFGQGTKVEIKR
notes: IgG1 LALA; also called anti-CD3-C1-D6; C1-D6
B15: Anti-CD3-C1-UCP01-F12 IgG1LALA (antibody, V domains shown)
VH: B10 VH with H54F, V55R, Y57H
VL: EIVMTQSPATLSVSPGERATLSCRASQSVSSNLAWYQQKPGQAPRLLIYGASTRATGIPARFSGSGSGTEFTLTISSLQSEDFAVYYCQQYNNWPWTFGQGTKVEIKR
notes: IgG1 LALA
B16: Anti-CD3-C1-UCP01-H10 IgG1LALA (antibody, V domains shown)
VH: B10 VH with H54L, A58P, E59Q
VL: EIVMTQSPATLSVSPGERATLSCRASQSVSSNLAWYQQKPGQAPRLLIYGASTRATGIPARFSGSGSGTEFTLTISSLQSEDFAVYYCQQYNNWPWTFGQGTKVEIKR
notes: IgG1 LALA; also called anti-CD3-C1-H10
B17: Anti-CD3-C1-UCP01-F10 IgG1LALA (antibody, V domains shown)
VH: B10 VH with S52N, V55I, G56R, Y57F, A58P
VL: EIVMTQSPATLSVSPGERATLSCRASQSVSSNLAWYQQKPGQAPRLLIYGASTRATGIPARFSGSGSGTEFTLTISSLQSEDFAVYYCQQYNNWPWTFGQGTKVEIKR
notes: IgG1 LALA; also called anti-CD3-C1-F10
B18: Anti-CD3-C1-UCP01-E10 IgG1LALA (antibody, V domains shown)
VH: B10 VH with H54F, V55E, Y57T, A58P, E59A
VL: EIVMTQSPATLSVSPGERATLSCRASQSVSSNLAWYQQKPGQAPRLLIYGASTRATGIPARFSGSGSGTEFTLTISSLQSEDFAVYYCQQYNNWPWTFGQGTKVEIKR
notes: IgG1 LALA; also called anti-CD3-C1-E10
B19: Anti-CD3-C1-UCP01-D1 IgG1LALA (antibody, V domains shown)
VH: B10 VH with S52N, H54L, V55S, G56D, Y57E, E59Q
VL: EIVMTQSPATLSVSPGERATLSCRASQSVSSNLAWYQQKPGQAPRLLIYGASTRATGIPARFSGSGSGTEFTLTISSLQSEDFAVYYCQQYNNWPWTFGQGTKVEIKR
notes: IgG1 LALA
B20: Anti-CD3-C1-UCP01-G12 IgG1LALA (antibody, V domains shown)
VH: B10 VH with E10K, V55I, Y57H, A58P
VL: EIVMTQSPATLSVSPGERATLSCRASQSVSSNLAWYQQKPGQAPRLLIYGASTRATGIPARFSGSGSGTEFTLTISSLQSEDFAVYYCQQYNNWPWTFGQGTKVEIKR
notes: IgG1 LALA
B21: Anti-CD3-C1-UCP02-E1 IgG1LALA (antibody, V domains shown)
VH: B10 VH with H54F, V55K
VL: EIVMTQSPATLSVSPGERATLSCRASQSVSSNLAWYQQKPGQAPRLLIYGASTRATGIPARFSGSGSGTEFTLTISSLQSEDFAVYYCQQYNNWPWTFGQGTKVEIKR
notes: IgG1 LALA
B22: Anti-CD3-C1-UCP01-E12 IgG1LALA (antibody, V domains shown)
VH: B10 VH with S52N, H54L, Y57H
VL: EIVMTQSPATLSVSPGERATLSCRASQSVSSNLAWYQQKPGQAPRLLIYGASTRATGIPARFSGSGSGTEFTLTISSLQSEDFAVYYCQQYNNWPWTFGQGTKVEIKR
notes: IgG1 LALA; also called anti-CD3-C1-E12
B23: Anti-CD3-C1-UCP01-E11 IgG1LALA (antibody, V domains shown)
VH: B10 VH with S52N, H54F, V55K, Y57D
VL: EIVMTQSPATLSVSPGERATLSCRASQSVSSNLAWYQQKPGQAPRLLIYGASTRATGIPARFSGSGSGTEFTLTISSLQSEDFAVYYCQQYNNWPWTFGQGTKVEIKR
notes: IgG1 LALA
B24: Anti-CD3-C1-UCP01-B6 IgG1LALA (antibody, V domains shown)
VH: B10 VH with H54Y, V55Q, E59S
VL: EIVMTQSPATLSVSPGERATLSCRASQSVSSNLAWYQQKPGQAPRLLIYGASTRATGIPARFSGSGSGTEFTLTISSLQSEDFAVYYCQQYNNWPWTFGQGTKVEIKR
notes: IgG1 LALA
B25: Anti-CD3-C1-UCP01-C11 IgG1LALA (antibody, V domains shown)
VH: B10 VH with S52N, Y57A, A58P
VL: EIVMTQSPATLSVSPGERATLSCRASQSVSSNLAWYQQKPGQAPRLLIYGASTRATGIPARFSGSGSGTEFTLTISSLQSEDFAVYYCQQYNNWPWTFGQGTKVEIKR
notes: IgG1 LALA
B26: Anti-CD38-UCP03-E3 Fab (Fab, V domains shown)
VH: QVQLVQSGAEVKKPGSSVKVSCKASGGSFSIYAISWVRQAPGQGLEWMGGIIPNSGDTDYAQKFQGRVTITADESTSTAYMELSSLRSEDTAVYYCARGPYDSYGESYFDYWGQGTLVTVSS
VL: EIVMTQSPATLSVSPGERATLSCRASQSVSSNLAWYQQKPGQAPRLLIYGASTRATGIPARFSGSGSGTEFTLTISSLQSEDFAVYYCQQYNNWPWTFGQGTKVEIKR
notes: Fab
B27: Anti-CD38-UCP03-B6 Fab (Fab, V domains shown)
VH: QVQLVQSGAEVKKPGSSVKVSCKASGGHISNSAINWVRQAPGQGLEWMGRVIPVIDDAYYAQKFQGRVTITADESTSTAYMELSSLRSEDTAVYYCARSRGYYGSFYFDIWGQGTLVTVSS
VL: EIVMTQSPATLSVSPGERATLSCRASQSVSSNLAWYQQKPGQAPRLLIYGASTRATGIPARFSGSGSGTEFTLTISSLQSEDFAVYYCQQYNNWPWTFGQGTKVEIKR
notes: Fab
B28: Anti-CD3-C1-UCP01-B9 IgG1LALA (antibody, V domains shown)
VH: QVQLVQSGAEVKKPGSSVKVSCKASGGKFSRYAISWVRQAPGQGLEWMGGINAPVVRSPEYAQKFQGRVTITADESTSTAYMELSSLRSEDTAVYYCARYGYSLYMDIWGQGTLVTVSS
VL: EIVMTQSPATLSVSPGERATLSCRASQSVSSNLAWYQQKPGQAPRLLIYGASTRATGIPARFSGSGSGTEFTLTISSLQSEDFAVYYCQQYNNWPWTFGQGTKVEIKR
notes: IgG1 LALA
B29: Anti-CD3-C1-UCP01-E6 IgG1LALA (antibody, V domains shown)
VH: B28 VH with N52T, A53P, V55H, R57G, S58I, P59A, E60D
VL: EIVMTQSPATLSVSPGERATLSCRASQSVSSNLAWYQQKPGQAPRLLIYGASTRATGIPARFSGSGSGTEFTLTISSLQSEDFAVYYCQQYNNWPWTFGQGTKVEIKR
notes: IgG1 LALA
B30: Anti-CD38-UCP03-H2 Fab (Fab, V domains shown)
VH: QVQLVQSGAEVKKPGSSVKVSCKASGGEFSIYVISWVRQAPGQGLEWMGRVIPSTGDTNYAQKFQGRVTITADESTSTAYMELSSLRSEDTAVYYCARGKAYYSGWLAIWGQGTLVTVSS
VL: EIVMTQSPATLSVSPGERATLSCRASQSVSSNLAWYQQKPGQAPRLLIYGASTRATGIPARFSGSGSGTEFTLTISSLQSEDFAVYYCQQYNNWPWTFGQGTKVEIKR
notes: Fab
B31: Anti-BCMA-D3-MP05-C1a FAB (Fab, V domains shown)
VH: EVQLVESGGGLIQPGGSLRLSCAASGFIFSHYEMNWVRQAPGKGLEWVSAIGQGGNTVYADSVKGRFTISRDNSKNTLYLQMNSLRAEDTAVYYCARVPYSYMGYAGADIWGQGTLVTVSS
VL: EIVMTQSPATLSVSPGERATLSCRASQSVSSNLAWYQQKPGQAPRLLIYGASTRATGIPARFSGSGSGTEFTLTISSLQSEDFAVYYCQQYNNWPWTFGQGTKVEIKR
notes: Fab
B32: Anti-BCMA-D3-MP05-C1b FAB (Fab, V domains shown)
VH: B31 VH with M103I
VL: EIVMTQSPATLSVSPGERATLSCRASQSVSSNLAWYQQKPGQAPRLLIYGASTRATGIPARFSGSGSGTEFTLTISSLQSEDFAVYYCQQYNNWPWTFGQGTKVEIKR
notes: Fab
B33: Anti-BCMA-D3-MP05-A9 FAB (Fab, V domains shown)
VH: B31 VH with M103A, A106S
VL: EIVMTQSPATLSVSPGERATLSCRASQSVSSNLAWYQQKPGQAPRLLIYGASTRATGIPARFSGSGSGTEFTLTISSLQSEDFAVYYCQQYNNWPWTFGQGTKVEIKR
notes: Fab
B34: Anti-BCMA-D3-MP04-B11d FAB (Fab, V domains shown)
VH: B31 VH with G54V, G55A, N56A, T57E, M103S, A106S
VL: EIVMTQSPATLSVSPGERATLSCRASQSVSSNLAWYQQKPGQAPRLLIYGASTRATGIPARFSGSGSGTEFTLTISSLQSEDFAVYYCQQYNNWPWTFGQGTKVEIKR
notes: Fab

Assays:
[1] = target: T3, Biotinylated Human CD38 Protein, Avitag, His Tag (Acrobiosystems CD8-H82E7) (human, UniProt P28907 43-300, biotinylated); test: SPR, Fab as analyte, immobilised biotinylated human CD38;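 further: biacore T200 at 25 °C, single-cycle kinetics with Fab from 7.8 to 2000 nM, 3 min association then 5 min dissociation, fitted with a 1:1 Langmuir model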
T3 construct: bought protein; also called biotinylated recombinant human CD38 protein; human CD38-avi-his

[2] = target: T4, recombinant cynomolgus monkey CD38-ECD-C-his protein (cynomolgus monkey, UniProt Q5VAN0 45-301); test: SPR, Fab as analyte, captured cynomolgus CD38-his
T4 construct: made in house; Q5VAN0 residues 43-301 (residue 44 deleted) with C-terminal 6-His; also called cynomolgus monkey CD38-C-His; recombinant cynomolgus monkey CD38 protein

[3] = target: T5, recombinant cynomolgus monkey BCMA Fc fusion protein (Acrobiosystems BCA-C5253) (cynomolgus monkey, UniProt A0A2K5UD97 1-53); test: SPR, Fab as analyte, captured cynomolgus BCMA-Fc
T5 construct: bought protein; not shown: Fc of the bought fusion protein, not described

[4] = target: T1, human BCMA on cells (NCI-H929, NCI-H929 …); test: flow cytometry, NCI-H929 cells
[5] = target: T1, human BCMA on cells (NCI-H929, NCI-H929 …); test: flow cytometry, NCI-H929 cells, one-site fit
[6] = target: T2, recombinant human BCMA Fc fusion …; test: SPR, Fab as analyte, captured human BCMA-Fc
[7] = target: T6, human CD3 on cells (HPB-ALL cells, primary human T cells) (human, UniProt P07766 23-207); test: flow cytometry, human CD4+ T cells
T6 construct: whole, on cells; only the epsilon chain is written
T6 sequence (P07766 23-207): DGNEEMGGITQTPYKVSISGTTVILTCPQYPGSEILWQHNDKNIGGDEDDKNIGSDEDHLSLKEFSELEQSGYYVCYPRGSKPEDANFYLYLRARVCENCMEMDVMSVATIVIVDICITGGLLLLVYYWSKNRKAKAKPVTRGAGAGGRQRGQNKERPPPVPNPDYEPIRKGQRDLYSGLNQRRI

T5 sequence (A0A2K5UD97 entry or part of it): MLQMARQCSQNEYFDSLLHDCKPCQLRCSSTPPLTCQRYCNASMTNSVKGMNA

| Binder | Kd [3] [nM] | Kd [6] [nM] | MFI at 800 nM [7] [MFI] | further results |
| --- | --- | --- | --- | --- |
| B1 |  |  |  | Kd [1]: 810 nM; Kd [2]: 178 nM |
| B2 |  |  |  | Kd [1]: 410 nM; Kd [2]: 525 nM |
| B3 | 0.01 | 0.03 |  | Maximum binding (RFI) [4]: 21500 RFI; Kd [5]: 7.68 nM |
| B4 | 0.01 | 0.02 |  | Maximum binding (RFI) [4]: 25300 RFI; Kd [5]: 8.84 nM |
| B5 | 0.31 | 0.41 |  | Maximum binding (RFI) [4]: 21500 RFI; Kd [5]: 29.5 nM |
| B6 | 0.17 | 0.09 |  | Maximum binding (RFI) [4]: 26500 RFI; Kd [5]: 3.65 nM |
| B7 | 0.01 | 0.01 |  | Maximum binding (RFI) [4]: 31800 RFI; Kd [5]: 13.4 nM |
| B8 | 0.11 | 0.03 |  | Maximum binding (RFI) [4]: 28300 RFI; Kd [5]: 7.39 nM |
| B9 | 0.02 | 0.03 |  | Maximum binding (RFI) [4]: 24600 RFI; Kd [5]: 6.49 nM |
| B10 |  |  | 133000 |  |
| B11 |  |  | 126000 |  |
| B12 |  |  | 82800 |  |
| B13 |  |  | 81300 |  |
| B14 |  |  | 178000 |  |
| B15 |  |  | 108000 |  |
| B16 |  |  | 151000 |  |
| B17 |  |  | 150000 |  |

| Binder | Kd [3] [nM] | Kd [6] [nM] | MFI at 800 nM [7] [MFI] | further results |
| --- | --- | --- | --- | --- |
| B18 |  |  | 100000 |  |
| B19 |  |  | 52800 |  |
| B20 |  |  | 121000 |  |
| B21 |  |  | 151000 |  |
| B22 |  |  | 149000 |  |
| B23 |  |  | 91800 |  |
| B24 |  |  | 109000 |  |
| B25 |  |  | 119000 |  |
| B26 |  |  |  | Kd [1]: 300 nM; Kd [2]: 195 nM |
| B27 |  |  |  | Kd [1]: 225 nM; Kd [2]: 829 nM |
| B28 |  |  | 108000 |  |
| B29 |  |  | 231000 |  |
| B30 |  |  |  | Kd [1]: 1850 nM; Kd [2]: 672 nM |
| B31 | 1.03 | 1.03 |  |  |
| B32 | 5.86 | 2.22 |  |  |
| B33 | 6.54 | 2.3 |  |  |
| B34 | 4.85 | 5.43 |  |  |
